Data as given in patent publication US20170241986A1, “METHODS FOR IDENTIFYING COMPOUNDS THAT ALTER THE ACTIVITY OF IRHOM POLYPEPTIDES AND USE THEREOF” (The Jackson Laboratory, priority 2014, published 2017).

Tests used:
iRhom2 [1] = test: Flow cytometry of protein expression of Flag-tagged constructs in 293T and COS7 cells; type: cell-based, human; details: 48 h post transfection
Procedure: Flow cytometry—293T and COS7 cells plated in 6 well plates were transiently transfected with 600 ng of HuWt or HuCub or HuWt p.I186T cDNAs using Lipofectamine™ LTX reagent. […] Following that, cells were fixed in 150 μls of freshly prepared cold 4% PFA at RT for 40 min. Cells were washed once with 2 ml PBST and resuspended in 150 μls of PBST for 15 min at RT in the dark. After another wash, cells were resuspended in 125 μls of PBST containing phycoerythrin-labeled anti-DDK primary antibody (1:50) on ice for 30 min. After a final wash, cells were resuspended in FACS buffer and subjected to flow cytometry analysis (BD FACSCalibur).

AREG [2] = test: ELISA of AREG in conditioned medium of transfected 293T cells (in vitro cleavage assay); type: cell-based, human; details: 293T cells, co-expression with AREG, absence of MM
Excerpt: To test whether Rhbdf2^cub, with its short N-terminal domain, could induce secretion of AREG independently of metalloprotease activity, we performed in vitro cleavage assays in the presence or absence of marimastat (MM), a potent broad-spectrum metalloprotease inhibitor that can block both ADAM17- and ADAM10-dependent shedding of substrates. Because of the significant homology between the mouse and human RHBDF2 genes we transfected 293T cells with human AREG either alone or with the human wildtype (HuWt) or human Cub (HuCub) RHBDF2 genes (FIG. 5A), and measured AREG levels in conditioned medium. In the absence of MM, we observed no difference in AREG levels between AREG-expressing and AREG/HuCub co-expressing cells, whereas co-expression of HuWt and AREG reduced AREG levels by ˜60% (FIG. 5B).
Human AREG, HB-EGF and EGF ELISA: Transient transfections were performed in 293T cells seeded in 24-well plates. Using lipofectamine LTX with Plus reagent 16.5 fmol of HuWt or HuCub was co-transfected with 25 ng of AREG or 50 ng of HB-EGF or 200 ng of EGF. The total amount of transfected DNA was made up to equal amount per well with pCMV6-AC-HA vector. After 24 h, DMSO or 10 μM MM in 1 ml of fresh medium replaced the old medium. After 24 h, 100 μl of supernatant was either undiluted (HB-EGF and EGF) or diluted five-fold (AREG) and subjected to ELISA as per the manufacturer's instructions (DY262, DY259, and DY236).

iRhom2 [3] = test: Cyclohexamide chase with flow cytometry of Flag-tagged iRhom2 protein in COS7 cells; type: cell-based; details: 150 μg/ml cyclohexamide chase, within one hour
Procedure: Flow cytometry—293T and COS7 cells plated in 6 well plates were transiently transfected with 600 ng of HuWt or HuCub or HuWt p.I186T cDNAs using Lipofectamine™ LTX reagent. After 40 h, cells were incubated in 150 μg/ml of cyclohexamide for 0, 0.5, 1, 2 and 4 h. Following that, cells were fixed in 150 μls of freshly prepared cold 4% PFA at RT for 40 min. Cells were washed once with 2 ml PBST and resuspended in 150 μls of PBST for 15 min at RT in the dark. After another wash, cells were resuspended in 125 μls of PBST containing phycoerythrin-labeled anti-DDK primary antibody (1:50) on ice for 30 min. After a final wash, cells were resuspended in FACS buffer and subjected to flow cytometry analysis (BD FACSCalibur).
Statistical analysis—GraphPad Prism v4 (GraphPad Software, San Diego, Calif.) was used to generate Kaplan-Meier survival curves and calculate protein half-life (One phase exponential decay equation). One-way ANOVA and t-tests determined statistical differences. P value less than 0.05 was considered statistically significant.

AREG [4] = test: Co-immunoprecipitation of iRhom2-AREG complex; type: binding, human; details: COS7 cell lysates, anti-Flag immunoprecipitation
Procedure: Immunoprecipitation: 293T and COS7 cell transfections were carried according to the manufacturer's instructions (Life technologies). Cells plated in 6 well plates were treated with 400 μls of Cell Lysis Buffer (Cell Signaling, Danvers, Mass.) containing complete mini protease inhibitors (Roche Applied Science, Indianapolis, Ind.), incubated on ice for 10 min and centrifuged at 14,000 g for 10 min in a cold room. Cell supernatant was incubated overnight with 20 μls of magnetic beads conjugated with Anti-DDK antibody (Origene) in a cold room on a rocking platform. Following overnight incubation, beads/slurry was washed with three times with TBS-T, and protein was collected using 2×SDS-PAGE loading buffer.

B1: HuWt: full-length wildtype human RHBDF2 cDNA (iRhom2) in a C-terminal Flag-tagged expression vector (protein)
chain: MASADKNGGSVSSVSSSRLQSRKPPNLSITIPPPEKETQAPGEQDSMLPEGFQNRRLKKSQPRTWAAHTTACPPSFLPKRKNPAYLKSVSLQEPRSRWQESSEKRPGFRRQASLSQSIRKGAAQWFGVSGDWEGQRQQWQRRSLHHCSMRYGRLKASCQRDLELPSQEAPSFQGTESPKPCKMPKIVDPLARGRAFRHPEEMDRPHAPHPPLTPGVLSLTSFTSVRSGYSHLPRRKRMSVAHMSLQAAAALLKGRSVLDATGQRCRVVKRSFAFPSFLEEDVVDGADTFDSSFFSKEEMSSMPDDVFESPPLSASYFRGIPHSASPVSPDGVQIPLKEYGRAPVPGPRRGKRIASKVKHFAFDRKKRHYGLGVVGNWLNRSYRRSISSTVQRQLESFDSHRPYFTYWLTFVHVIITLLVICTYGIAPVGFAQHVTTQLVLRNKGVYESVKYIQQENFWVGPSSIDLIHLGAKFSPCIRKDGQIEQLVLRERDLERDSGCCVQNDHSGCIQTQRKDCSETLATFVKWQDDTGPPMDKSDLGQKRTSGAVCHQDPRTCEEPASSGAHIWPDDITKWPICTEQARSNHTGFLHMDCEIKGRPCCIGTKGSCEITTREYCEFMHGYFHEEATLCSQVHCLDKVCGLLPFLNPEVPDQFYRLWLSLFLHAGVVHCLVSVVFQMTILRDLEKLAGWHRIAIIFILSGITGNLASAIFLPYRAEVGPAGSQFGLLACLFVELFQSWPLLERPWKAFLNLSAIVLFLFICGLLPWIDNIAHIFGFLSGLLLAFAFLPYITFGTSDKYRKRALILVSLLAFAGLFAALVLWLYIYPINWPWIEHLTCFPFTSRFCEKYELDQVLH
modifications: left off: small tags and cut ends
notes: full-length wildtype human RHBDF2 cDNA (iRhom2) in a C-terminal Flag-tagged expression vector
protein expression level compared to HuCub and p.I186T (iRhom2 [1]): significantly lower
reduction of AREG levels in conditioned medium (AREG [2]): ~60%
reduction in immunoreactivity compared with HuCub or p.I186T (iRhom2 [3]): approximately 50%
physical complex with AREG (AREG [4]): forms physical complexes with AREG
